The results in this text go back to the RNAGym collection of RNA variant scans (doi:10.7554/elife.80360).

The labels stand for the following.
B1: CPEB3 Ribozyme (parent)
chain: GGGGGCCACAGCAGAAGCGUUCACGUCGCGGCCCCUGUCAGAUUCUGGUGAAUCUGCGAAUUCUGCUGU

The variants in the data set derive from B1. Nature of the data set: self-cleavage, relative activity (ratio to wild type); higher = more cleavage; co-transcriptional.
Consider C12U C33U, for which the self-cleavage was 0.972.
Take G11U U38C: the self-cleavage was found to be 0.756.
In the case of C12A A42G, the self-cleavage is 0.41.
Turning to C12A A42C, the self-cleavage was 0.413.
On to C12A C66A, for which the self-cleavage was found to be 0.686.
For the variant C12A C66G, the self-cleavage amounted to 0.561.
With C12G C29A, the self-cleavage worked out at 0.213.
Regarding C12G C29U, the self-cleavage was determined as 0.137.
Under C12A C22A stands 0.144; under C12A C22G, 0.129; under C12A C22U, 0.111.
Under C12U A51U stands 0.991.
As to C12U A51G, the self-cleavage is 0.996.
Consider C12G G50A, for which the self-cleavage was 0.917.
Under C12G G50C stands 0.75; under C12G G50U, 0.84; under C12G U61A, 0.537.
Turning to C12G U61G, the self-cleavage is 0.592.
The same measure for C12G A13C: 0.26.
As to C12G A13U, the self-cleavage was 0.129.
The same measure for C12G A60C: 0.277.
As for C12G A60G, the self-cleavage is 0.451.
Take G11U U61A: the self-cleavage stood at 0.412.
The same measure for G11U U61G: 0.348; for C12A U26C: 0.5.
Take C12U C54G: the self-cleavage stood at 0.84.
For C12U C54A, the self-cleavage turned out to be 0.812.
Regarding C12G G17C, the self-cleavage was 0.0979.
For C12G G17A, the self-cleavage is 0.148.
As to C12U C45A, the self-cleavage came to 0.97.
G11U U44G: the self-cleavage was 0.734.
In the case of G11U U44C, the self-cleavage stood at 0.539.
For G11U U44A, the self-cleavage came out at 0.677.
The same measure for C12A G19C: 0.125; for C12G C63G: 0.339.
As for C12G C63A, the self-cleavage was determined as 0.218.
Under C12G U62G stands 0.338.
Under G11U U43A stands 0.392; under G11U U43G, 0.302; under C12G A59G, 0.802.
On to C12G A59C, for which the self-cleavage amounted to 0.339.
Turning to C12G A52G, the self-cleavage stood at 0.94.
Under C12G A52C stands 0.792; under C12G A52U, 0.852.
Consider C12A A23U, for which the self-cleavage was 0.742.
Regarding C12A A23G, the self-cleavage was determined as 0.42.
As for C12A C29U, the self-cleavage turned out to be 0.135.
Take C12A C29G: the self-cleavage turned out to be 0.105.
C12G C22U: the self-cleavage came out at 0.149.
As to C12A C63G, the self-cleavage amounted to 0.354.
For C12U G14A, the self-cleavage worked out at 0.19.
The same measure for C12G U53A: 0.634.
Turning to C12G U53C, the self-cleavage was 0.408.
As to C12G U53G, the self-cleavage turned out to be 0.654.
For C12A U49G, the self-cleavage was 0.846.
As for C12A U49A, the self-cleavage was 0.893.
In the case of C12A G56U, the self-cleavage stood at 0.296.
Under C12A G56A stands 0.502; under C12A G56C, 0.348.
As to C12G C18U, the self-cleavage was 0.178.
As to C12G C18G, the self-cleavage is 0.0782.
Regarding C12G C18A, the self-cleavage was determined as 0.185.
Consider C12A G25C, for which the self-cleavage turned out to be 0.127.
With C12U C22G, the self-cleavage came out at 0.248.
Under C12U C22U stands 0.16.
Under C12A G30A stands 0.322.
Consider C12A G30U, for which the self-cleavage was found to be 0.212.
C12A G14C: the self-cleavage worked out at 0.126.
In the case of C12U A59C, the self-cleavage is 0.623.
The same measure for C12U A59G: 0.968; for C12U A59U: 0.822.
With C12G G65A, the self-cleavage was 0.932.
C12G G65U: the self-cleavage was 0.952.
Under C12G G65C stands 0.934; under C12A U53A, 0.354.
Take C12A U53G: the self-cleavage worked out at 0.335.
The same measure for C12G A15U: 0.171.
Regarding C12G A15C, the self-cleavage was 0.301.
Under C12G A15G stands 0.613.
For the variant C12A C27U, the self-cleavage turned out to be 0.117.
Under C12A C27A stands 0.145.
Take C12A U21C: the self-cleavage is 0.464.
As to C12A U21A, the self-cleavage is 0.642.
For the variant C12U A16U, the self-cleavage stood at 0.655.
Consider C12U A16G, for which the self-cleavage was 0.814.
In the case of C12U A16C, the self-cleavage is 0.134.
With C12G C57U, the self-cleavage was found to be 0.336.
On to C12G C57G, for which the self-cleavage was 0.427.
As to C12G C57A, the self-cleavage came out at 0.25.
C12U C32G: the self-cleavage came out at 0.529.
For the variant C12U C32A, the self-cleavage is 0.874.
Consider C12G C35U, for which the self-cleavage was 0.83.
Under C12G C54U stands 0.828.
Take C12G C54A: the self-cleavage was 0.416.
As for C12U A60C, the self-cleavage is 0.299.
For the variant C12U A60G, the self-cleavage was determined as 0.716.
In the case of G11U U62C, the self-cleavage turned out to be 0.365.
Under G11U U62A stands 0.38.
With G11U U62G, the self-cleavage was 0.381.
The same measure for C12A C34G: 0.495.
For C12A C34A, the self-cleavage came out at 0.448.
Turning to C12A G65A, the self-cleavage stood at 0.887.
The same measure for C12A G65U: 0.932.
As for C12A U64G, the self-cleavage came out at 0.674.
Take C12G U69G: the self-cleavage amounted to 1.04.
With C12G U69A, the self-cleavage worked out at 0.881.
Turning to C12A G41C, the self-cleavage is 0.191.
Regarding C12A G41U, the self-cleavage was 0.286.
The same measure for C12U C34A: 0.778; for C12U C34U: 0.959; for C12U C34G: 0.734.
For C12U G31C, the self-cleavage amounted to 0.191.
Under C12U G31A stands 0.905; under C12U G31U, 0.723; under G11U U69G, 0.968.
Under G11U U69A stands 0.958.
In the case of C12U C39G, the self-cleavage is 0.928.
Regarding C12U C39U, the self-cleavage is 0.854.
With C12A A13C, the self-cleavage was found to be 0.199.
Under C12A A13G stands 0.735.
For the variant G11U U46G, the self-cleavage turned out to be 0.901.
On to G11U U46A, for which the self-cleavage was 0.864.
Consider G11U U46C, for which the self-cleavage amounted to 0.79.
C12U G17U: the self-cleavage was found to be 0.321.
For the variant C12U G17C, the self-cleavage was found to be 0.138.
Take C12U G17A: the self-cleavage was found to be 0.281.
On to G11U U64A, for which the self-cleavage came out at 0.467.
The same measure for C12A C33G: 0.395.
Regarding C12A C33A, the self-cleavage came out at 0.553.
For the variant C12G C39U, the self-cleavage was 0.533.
Consider C12G C39G, for which the self-cleavage is 0.455.
Under G11U G68U stands 0.856; under C12G G58A, 0.852.
In the case of C12G G58U, the self-cleavage was found to be 0.945.
On to C12G C45U, for which the self-cleavage came out at 0.868.
As for C12G C45G, the self-cleavage was 0.819.
Regarding C12G C45A, the self-cleavage is 0.728.
The same measure for C12A G48A: 0.833; for C12A G48C: 0.771.
For C12G U46G, the self-cleavage is 0.862.
Under C12G U46C stands 0.832; under C12G U46A, 0.91.
On to C12U G28C, for which the self-cleavage was 0.175.
As to C12U G28A, the self-cleavage was 0.17.
For C12U G28U, the self-cleavage came out at 0.131.
For C12G U43C, the self-cleavage amounted to 0.706.
Consider C12G U43A, for which the self-cleavage was determined as 0.519.
In the case of C12G A51G, the self-cleavage stood at 0.887.
C12G A51C: the self-cleavage stood at 0.79.
C12U G37U: the self-cleavage is 0.222.
For the variant C12U G37A, the self-cleavage turned out to be 0.302.
In the case of C12U G37C, the self-cleavage stood at 0.241.
As for C12A G17A, the self-cleavage was 0.187.
As for C12A G17U, the self-cleavage is 0.0724.
Under C12A G17C stands 0.139.
Under G11U U21A stands 0.895.
Take C12A C18U: the self-cleavage was 0.143.
With C12A C18G, the self-cleavage came out at 0.113.
On to G11U U67A, for which the self-cleavage stood at 0.913.
Regarding G11U U67G, the self-cleavage was 0.949.
Consider G11U U67C, for which the self-cleavage was found to be 0.96.
On to C12G C33A, for which the self-cleavage stood at 0.68.
Consider C12G C33G, for which the self-cleavage came to 0.316.
For C12U G41U, the self-cleavage is 0.718.
Take C12A G58U: the self-cleavage was 0.843.
As for C12A G58C, the self-cleavage stood at 0.653.
Under C12A U36C stands 0.441.
